According to US20210145976A1:

Target: human serum albumin (human) (UniProt P02768)
Experiment: screening ELISA

Chain of human serum albumin (human) (P02768 25-609 limits assumed): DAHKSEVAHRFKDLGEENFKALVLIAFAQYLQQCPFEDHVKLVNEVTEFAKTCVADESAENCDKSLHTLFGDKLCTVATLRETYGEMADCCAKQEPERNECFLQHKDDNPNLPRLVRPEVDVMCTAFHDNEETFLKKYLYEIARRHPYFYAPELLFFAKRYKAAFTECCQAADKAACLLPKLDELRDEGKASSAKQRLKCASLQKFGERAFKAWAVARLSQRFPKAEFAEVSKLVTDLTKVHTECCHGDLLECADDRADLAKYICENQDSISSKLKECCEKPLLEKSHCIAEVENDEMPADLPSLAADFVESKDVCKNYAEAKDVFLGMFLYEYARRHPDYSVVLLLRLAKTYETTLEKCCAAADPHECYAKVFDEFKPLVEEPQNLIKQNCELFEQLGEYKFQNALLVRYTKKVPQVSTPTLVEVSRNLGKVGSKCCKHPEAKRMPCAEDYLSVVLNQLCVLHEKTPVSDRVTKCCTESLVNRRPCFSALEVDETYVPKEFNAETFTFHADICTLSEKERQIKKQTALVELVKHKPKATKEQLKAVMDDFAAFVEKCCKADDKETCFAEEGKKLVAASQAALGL

Row | Binder | HSA
1 | SEQ ID NO 119 (designed binder) MLPAPKNLVVSRVTEDSARLSWTAPDAAFDSFHIEYEETPQKGEAIFLRVPGSERSYDLTGLKPGTEYVVNIRGVKGGDLSSPLGALFTT | 1850
2 | SEQ ID NO 156 (designed binder) MLPAPKNLVVSRVTEDSARLSWTAPDAAFDSFAIEYFENLGIGEAIVLTVPGSERSYDLTGLKPGTEYVVNIYGVKGGWLSSPLSAIFTT | 5000
3 | SEQ ID NO 140 (designed binder) MLPAPKNLVVSRVTEDSARLSWTAPDAAFDSFWISYEESDTEGEAIYLRVPGSERSYDLTGLKPGTEYNVTIQGVKGGFPSMPLSAIFTT | 1600
4 | SEQ ID NO 152 (designed binder) MLPAPKNLVVSRVTEDSARLSWTAPDAAFDSFFIGYLEPQPPGEAIVLTVPGSERSYDLTGLKPGTEYNVTIQGVKGGFPSSPLSAIFTT | 5300
5 | SEQ ID NO 124 (designed binder) MLPAPKNLVVSRVTEDSARLSWTAPDAAFDSFSIDYPEFPVRGEAIVLTVPGSERSYDLTGLKPGTEYAVTIWGVKGGFTSQPLSAIFTT | 3450
6 | SEQ ID NO 127 (designed binder) MLPAPKNLVVSRVTEDSARLSWTAPDAAFDSFPIPYGESPPSGEAIVLTVPGSERSYDLTGLKPGTEYVVIIRGVKGGGRSGPLSAISTT | 93300
7 | SEQ ID NO 144 (designed binder) MLPAPKNLVVSRVTEDSARLSWTAPDAAFDSFIIPYAEVRPDGEAIVLTVPGSERSYDLTGLKPGTEYSVLIHGVKGGKLSLPLSAIFTT | 2750
8 | SEQ ID NO 149 (designed binder) MLPAPKNLVVSRVTEDSARLSWTAPDAAFDSFIIPYAEVRPDGEAIVLTVPGSERSYDLTGLKPGTEYSVLIHGVKGGKLSEPLSAIFTT | 3350
9 | SEQ ID NO 154 (designed binder) MLPAPKNLVVSRVTEDSARLSWTAPDAAFDSFFIPYAEPRPDGEAIVLTVPGSERSYDLTGLKPGTEYSVLIHGVKGGLLSSPLSAIFTT | 4150
10 | SEQ ID NO 151 (designed binder) MLPAPKNLVVSRVTEDSARLSWTAPDAAFDSFFIPYAEPSPTGEAIVLTVPGSERSYDLTGLKPGTEYGVVILGVKGGYGSDPLSAIFTT | 55000
11 | SEQ ID NO 147 (designed binder) MLPAPKNLVVSRVTEDSARLSWTAPDAAFDSFFIGYLEPQPPGEAIVLTVPGSERSYDLTGLKPGTEYSVLIHGVKGGRNSDPLSAISTT | 71200
12 | SEQ ID NO 146 (designed binder) MLPAPKNLVVSRVTEDSARLSWTAPDAAFDSFYIAYAEPRPDGEAIVLTVPGSERSYDLTGLKPGTEYSVLIHGVKGGLLSSPLSAIFTT | 3800
13 | SEQ ID NO 132 (designed binder) MLPAPKNLVVSRVTEDSARLSWTAPDAAFDSFTIVYAEVTYDGEAIVLTVPGSERSYDLTGLKPGTEYDVFIEGVKGGELSWPLSAIFTT | 2350
14 | SEQ ID NO 118 (designed binder) MLPAPKNLVVSRVTEDSARLSWTAPDAAFDSFRILYGEVDPWGEAIVLTVPGSERSYDLTGLKPGTEYDVWIEGVKGGKLSWPLSAIFTT | 18800
15 | SEQ ID NO 42 (designed binder) MLPAPKNLVVSRVTEDSARLSWTAPDAAFDSFTIEYYESFYGGEAIVLTVPGSERSYDLTGLKPGTEYYVSIYGVKGGWLSRPLSAIFTT | 5920
16 | SEQ ID NO 128 (designed binder) MLPAPKNLVVSRVTEDSARLSWTAPDAAFDSFIINYIEIVQYGEAIVLTVPGSERSYDLTGLKPGTEYPESIWGVKGGGASSPLSAIFTT | 3250
17 | SEQ ID NO 120 (designed binder) MLPAPKNLVVSRVTEDSARLSWTAPDAAFDSFRIEYIEWWVGGEAIVLTVPGSERSYDLTGLKPGTEYWVDIKGVKGGKRSYPLSAIFTT | 1850
18 | SEQ ID NO 138 (designed binder) MLPAPKNLVVSRVTEDSARLSWTAPDAAFDSFFIKYIEWWADGEAIVLTVPGSERSYDLTGLKPGTEYLVEIYGVKGGRQSYPLSAIFTT | 3500
19 | SEQ ID NO 126 (designed binder) MLPAPKNLVVSRVTEDSARLSWTAPDAAFDSFSIDYLELGESGEAIVLTVPGSERSYDLTGLKPGTEYWVYIFGVKGGYPSAPLSAIFTT | 1750
20 | SEQ ID NO 41 (designed binder) MLPAPKNLVISRVTEDSARLSWTAPDAAFDSFFIYYIESYPAGEAIVLTVPGSERSYDLTGLKPGTEYWVGIDGVKGGRWSTPLSAIFTT | 10100

Further lines, results first:

Row | HSA | Binder
21 | 1050 | SEQ ID NO 125 (designed binder) MLPAPKNLVVSRVTEDSARLSWTAPDAAFDSFVIEYFEFVGEGEAIVLTVPGSERSYDLTGLKPGTEYDVGIYGVKGGSLSSPLSAIFTT
22 | 2450 | SEQ ID NO 157 (designed binder) MLPAPKNLVVSRVTEDSARLSWTAPDAAFDSFAIEYYEYVGNGEAIVLTVPGSERSYDLTGLKPGTEYQVGIYGVKGGYYSRPLSAIFTT
23 | 2960 | SEQ ID NO 40 (designed binder) MLPAPKNLVVSRVTEDSARLSWTAPDAAFDSFVIEYWEYVGHGEAIVLTVPGSERSYDLTGLKPGTEYSVGIYGVKGGSLSRPLSAIFTT
24 | 2050 | SEQ ID NO 137 (designed binder) MLPAPKNLVVSRVTEDSARLSWTAPDAAFDSFEIEYDEPSVAGEAIVLTVPGSERSYDLTGLKPGTEYRVFIWGVKGGNQSWPLSAIFTT
25 | 3400 | SEQ ID NO 142 (designed binder) MLPAPKNLVVSRVTKDSARLSWTAPDAAFDSFHIAYEEATTYGEAIFLRVPGSERSYDLTGLKPGTEYEVKIHGVKGGADSKPLVAPFTT
26 | 28600 | SEQ ID NO 121 (designed binder) MLPAPKNLVVSRVTEDSARLSWTAPDAAFDSFSIDYPEFPVRGEAIVLTVPGSERSYDLTGPKPGTEYNVTIQGVKGGFPSMPLSAIFTT
27 | 3500 | SEQ ID NO 150 (designed binder) MLPAPKNLVVSRVTEDSARLSWTAPDAAFDSFPIAYAEPSPTGEAIVLTVPGSERSYDLTGLKPGTEYSVLIHGVKGGHLSDPLSAIFTT
28 | 9250 | SEQ ID NO 143 (designed binder) MLPAPKNLVVSRVTEDSARLSWTAPDAAFDSFHIAYEEADSEGEAIYLRVPGSERSYDLTGLKPGTEYSVNIQGVKGGIVSFPLHAEFTT
29 | 23500 | SEQ ID NO 117 (designed binder) MLPAPKNLVVSRVTEDSARLSWTAPDAAFDSFTIPYGEAFNPGEAIVLTVPGSERSYDLTGLKPGTEYDVFIEGVKGGTLSWPLSAIFTT
30 | 48400 | SEQ ID NO 145 (designed binder) MLPAPKNLVVSRVTEDSARLSWTAPDAAFDSFFIPYAEPSPTGEAIVLTVPGSERSYDLTGLKPGTEYDVWIEGVKGGTLSWPLSAIFTT
31 | 5000 | SEQ ID NO 133 (designed binder) MLPAPKNLVVSRVTEDSARLSWTAPDAAFDSFPIVYGEAWVTGEAIVLTVPGSERSYDLTGLKPGTEYDVWIEGVKGGELSWPLSAIFTT
32 | 3150 | SEQ ID NO 141 (designed binder) MLPAPKNLVVSRVTEDSARLSWTAPDAAFDSFVIEYFEQFNLGEAIVLTVPGSERSYDLTGLKPGTEYLVGIYGVKGGWLSHPLSAIFTT
33 | 26000 | SEQ ID NO 155 (designed binder) MLPAPKNLVVSRVTEDSARLSWTAPDAAFDSFPITYRERSQYGEAIVLTVPGSERSYDLTGLKPGTEYVVPIEGVKGGRGSKPLSAIFTT
34 | 4160 | SEQ ID NO 39 (designed binder) MLPAPKNLVVSRVTEDSARLSWTAPDAAFDSFDIDYREWWTLGEAIVLTVPGSERSYDLTGLKPGTEYYVNIQGVKGGLRSYPLSAIFTT
35 | 29600 | SEQ ID NO 122 (designed binder) MLPAPKNLVVSRVTEDSARLSWTAPDAAFDSFQIPYWEQSLGGEAIVLTVPGSERSYDLTGLKPGTEYEVWIEGVKGGDLSFPLSAISTT
36 | 6050 | SEQ ID NO 130 (designed binder) MLPAPKNLVVSRVTEDSARLSWTAPDAAFDSFHIPYVEAEVPGEAIQLHVPGSERSYDLTGLKPGTEYYVEIWGVKGGFYSPPLIAEFTT
37 | 1350 | SEQ ID NO 158 (designed binder) MLPAPKNLVVSRVTEDSARLSWTAPDAAFDSFIIDYLELDDYGEAIVLTVPGSERSYDLTGLKPGTEYPVYIYGVKGGLPSTPLSAIFTT
38 | 2100 | SEQ ID NO 139 (designed binder) MLPAPKNLVVSRVTEDSARLSWTAPDAAFDSFDISYWESGKYGEAIVLTVPGSESSYDLTGLKPGTEYLVDIFGVKGGYPSEPLSAIFTT
39 | 13100 | SEQ ID NO 153 (designed binder) MLPAPKNLVVSRVTEDSARLSWTAPDAALDSFRIAYTEYFVGGEAIVLTVPGSERSYDLTGLKPGTEYGVGIYGVKGGAGSSPLSAIFTT
40 | 5700 | SEQ ID NO 136 (designed binder) MLPAPKNLVVSRVTEDSARLSWTAPDAAFDSFFIYYIESYPAGEAIVLTVPGSERSYDLTGLKPGTEYWMGIDGVKGGRWSTPLSAIFTT
41 | 1950 | SEQ ID NO 134 (designed binder) MLPAPKNLVVSRVTEDSARLSWTAPDAAFDSFWIDYYERKYVGEAIVLTVPGSERSYDLTGLKPGTEYEVTIYGVKGGWYSDPLSAIFTT
